Biological target: Htz1^Flag (S. cerevisiae histone H2A.Z with a Flag epitope tag) (S. cerevisiae) (UniProt Q12692)
Test: co-IP

Chain of Htz1^Flag (S. cerevisiae histone H2A.Z with a Flag epitope tag) (S. cerevisiae) (Q12692 whole entry): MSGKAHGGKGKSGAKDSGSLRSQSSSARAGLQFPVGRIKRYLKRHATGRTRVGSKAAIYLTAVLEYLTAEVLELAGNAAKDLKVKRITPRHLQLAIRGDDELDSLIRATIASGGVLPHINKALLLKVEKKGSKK
Chain of histone H2A (S. cerevisiae, endogenous) (P04911 whole entry): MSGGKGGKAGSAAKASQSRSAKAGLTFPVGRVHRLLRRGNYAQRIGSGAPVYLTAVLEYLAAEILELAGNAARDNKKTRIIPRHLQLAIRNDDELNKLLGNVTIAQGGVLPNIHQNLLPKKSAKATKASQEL

Substance: histone H2A (S. cerevisiae, endogenous) (from UniProt P04911 1-132) (natural protein)
- estimated molar ratio of H2A and Htz1^Flag in the Flag eluate: 0.49

Reference: paper PMC7251641
